This is an account of results in article doi:10.1101/2023.01.06.522972 (bioRxiv, 2023).

To fix the notation:
B1: poly-L-proline decamer peptide (peptide)
peptide: PPPPPPPPPP
notes: also called poly-L-proline peptide; poly-proline decamer
B2: Leishmania major profilin, wild type (natural protein)
chain: SWQAYVDDSLIGSGNMHSAAIIGAADGSYWAYGGSYVPQPEEVQHIQKCLSDFSFVQSSGVNIYGVKFFGLQCGTDGDCKYIFFKKGAAGGCIYTTKQAFIVAVYGNPGDTSSLQQDLEKNTAHAVTVNPADCNTTVKRIADYLIKLGY
notes: also called LmProfilin; LmProf-WT

Common to all, as to conditions: both partners purified
Assay [1] deals with B2. In words: other fluorescence titration.
Assay [2] concerns the target T1, Leishmania major actin (Leishmania major, UniProt P45520 2-376).
T1 construct: also called LmActin; Leishmania actin
Description: ITC.

The target in assay [3] is T1, Leishmania major actin. Description: crystal structure.

T1 sequence (P45520 2-376): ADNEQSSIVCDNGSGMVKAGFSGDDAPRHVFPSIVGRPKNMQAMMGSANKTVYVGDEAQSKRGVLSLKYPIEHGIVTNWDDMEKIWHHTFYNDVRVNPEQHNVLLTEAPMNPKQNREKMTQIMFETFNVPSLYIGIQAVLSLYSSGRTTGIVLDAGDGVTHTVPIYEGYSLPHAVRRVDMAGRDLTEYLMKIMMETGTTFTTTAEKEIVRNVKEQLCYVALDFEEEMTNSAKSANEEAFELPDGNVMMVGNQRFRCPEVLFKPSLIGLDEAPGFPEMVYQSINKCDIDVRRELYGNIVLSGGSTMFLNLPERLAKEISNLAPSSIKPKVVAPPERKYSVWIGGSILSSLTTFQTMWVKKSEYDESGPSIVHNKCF

Broadly, the Kd is the concentration at which binding is half-saturated. A low value points to higher affinity. In assay [1], B1 showed a Kd of 242 ± 38.4 µM.
For orientation: stoichiometry N means the number of molecules, sites or subunits per partner or assembly. For B2, the equilibrium dissociation constant (Kd) with Leishmania major actin [2] was about 0.08 µM. Besides, the “stoichiometry N” value in the assay with Leishmania major actin [3] came to 1.
